According to patent US20230109208A1 (priority 2020, published 2023):
Values joined by “and” are separate entries in the source; they are usually repeats but may differ in a detail not shown here. Equal values may be shown once. Read-outs that look alike come from different tables or passages of the source.

Legend:
COVID-19 (SARS-CoV-2) = settings: cited from earlier work; for Mean Days to Discharge (**median): Lopinavir/Ritonavir cohort
[1] = system: COVID-19 associated chronic ARDS (SARS-CoV-2); assay type: in vivo, human; settings: one patient
Method: Hospitalized subject with confirmed COVID-19 pneumonia and established risk factors for poor outcomes was treated in the ICU for 12 weeks using standard supportive care for chronic acute respiratory distress syndrome (ARDS). […] Patient characteristics, clinical and laboratory outcomes, and adverse events were recorded through duration of hospitalization.
Over the course of their ICU stay, the patient developed acute respiratory distress syndrome (ARDS).

human GM-CSF = human GM-CSF (Homo sapiens, UniProt P04141); test: Binding of lenzilumab to GM-CSF
Sequence of human GM-CSF (P04141 18-144): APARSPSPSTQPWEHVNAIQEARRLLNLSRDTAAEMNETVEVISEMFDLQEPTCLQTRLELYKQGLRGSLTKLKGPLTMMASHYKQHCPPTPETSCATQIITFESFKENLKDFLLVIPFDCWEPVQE

[2] = Four completed clinical trials of lenzilumab (healthy volunteers, asthma, rheumatoid arthritis, CMML); assay type: in vivo, human; settings: 113 individuals in 4 completed trials
[3] = system: severe and critical COVID-19 pneumonia (SARS-CoV-2); settings: for deaths / mortality: data cutoff May 1, 2020; for ALT after lenzilumab / AST after lenzilumab: individual patients: peak (patient 4) or at discharge (patients 5, 8)
[4] = system: severe COVID-19 pneumonia (SARS-CoV-2); settings: for Incidence of IMV / Incidence of IMV and/or death / Incidence of death / Incidence of clinical improvement: n = 12
[5] = 12 patients (same cohort in Examples 8 and 10)
[6] = individual patient narratives, listed as lenzilumab
[7] = one patient, pretreatment vs 48 hours post-lenzilumab
[8] = patient 5 at discharge, unit not given

Tocilizumab: anti-IL6 receptor monoclonal antibody; IL-6 antagonist
Mean Days to Discharge (COVID-19 (SARS-CoV-2); Tocilizumab cohort): 13.5 days

lopinavir and ritonavir [Lopinavir/Ritonavir]
Mean Days to Discharge (**median) (COVID-19 (SARS-CoV-2)): 13** days
Mean Days to Discharge (**median) (COVID-19 (SARS-CoV-2); listed as Lopinavir-Ritonavir): 13 days

B1: Lenzilumab: Humaneered recombinant monoclonal antibody, derived from mouse antibody LMM102, targeting and neutralizing human GM-CSF (antibody, chains of the INN, looked up, V domains shown)
VH: QVQLVQSGAEVKKPGASVKVSCKASGYSFTNYYIHWVRQAPGQRLEWMGWINAGNGNTKYSQKFQGRVTITRDTSASTAYMELSSLRSEDTAVYYCVRRQRFPYYFDYWGQGTLVTVSS
VL: EIVLTQSPATLSVSPGERATLSCRASQSVGTNVAWYQQKPGQAPRVLIYSTSSRATGITDRFSGSGSGTDFTLTISRLEPEDFAVYYCQQFNKSPLTFGGGTKVEIK
lymphopenia post lenzilumab [1]: appeared to improve
infusion-related or systemic side effects ([1]; 600 mg IV every 8 hours, 3 doses): No infusion-related or systemic side effects
binding affinity (human GM-CSF): picomolar range
tolerability, frequency and severity of adverse events [2]: very well tolerated
hemoglobin on day 6 in one patient ([3]; 10.3 on day 0, renal biopsy day 2, subcapsular hematoma): 7.9 g/dL
median time to discharge post-lenzilumab ([3]; 11 discharged patients, range 3-19): 5 days
patients with clinical improvement of at least 2 points on the 8-point ordinal scale ([3]; 11 of 12 patients): 92% and 91.7%
hematological toxicity ([3]; 12 patients): not associated with any hematological toxicity
adverse events attributable to lenzilumab [3, 5]: no treatment-emergent adverse events attributable to lenzilumab
infusion reactions [3, 5]: no infusion reactions
median time to a 2-point clinical improvement ([3]; 95% CI 2-7 days): 5 days
time to resolution of fever in patients febrile at baseline ([3]; after lenzilumab administration): ≤ 48 h
Lymphocytes 1st Lab, summary of patients 1-5 ([3]; average of 5 patients): 1.044
Lymphocytes Last Value, summary of patients 1-5 ([3]; average of 5 patients): 1.422
Lymphocytes Low, summary of patients 1-5 ([3]; average of 5 patients): 0.912
Neutrophils 1st Lab, unlabelled summary line of patients 1-5 ([3]; average of 5 patients): 3.892
Neutrophils High, summary of patients 1-5 ([3]; average of 5 patients): 6.008
Neutrophils Last Value, summary of patients 1-5 ([3]; average of 5 patients): 3.98
mean IL-6 on day 3 ([3]; baseline 26.8 pg/mL, p=0.035): 16.1 pg/mL
mean CRP on day 3 ([3]; baseline 137.3 mg/L, p=0.040): 51.2 mg/L
mean absolute lymphocyte count day 3 ([3]; baseline 0.89, p=0.107): 1.14e+09 L⁻¹
mean absolute neutrophil count day 3 ([3]; baseline 5.1, p=0.27): 4.8e+09 L⁻¹
mean hemoglobin day 3 ([3]; baseline 12.9, p=0.89): 11.4 g/dL
mean temperature at day 3 ([3]; baseline 37.95, p=0.023): 36.97
proportion of patients with SpO2/FiO2<315 at end of observation ([3]; baseline 67%, p=0.00015): 8%
mean platelet count day 3 ([3]; baseline 217.7, p=0.001): 2.618e+11 L⁻¹
deaths / mortality [3]: no reported mortality
deaths / mortality ([3]; listed as lenzilumab): no deaths
patients discharged on home oxygen ([3]; five patients): 42%
ferritin after lenzilumab ([3]; individual patient narratives): 571 µg/L
CRP after lenzilumab ([3]; individual patient narratives, dates in text): 91 mg/L and 46 mg/L
D-dimer after lenzilumab [3, 6]: 1507 ng/mL and 1759 ng/mL and 1802 ng/mL
ferritin after lenzilumab [3, 6]: 1143 µg/L
IL-6 post Rx ([3]; individual patients, data to Apr. 13, 2020): 4.6 pg/mL
ALT after lenzilumab [3]: 175
AST after lenzilumab [3]: 96
ALT after lenzilumab ([3]; listed as lenzilumab): 169 and 137
AST after lenzilumab ([3]; listed as lenzilumab): 203 and 118
patients whose SpO2/FiO2 improved to >315 on day 1 ([3]; of 8 patients <315 at baseline): four
patients with 2-point improvement ([3]; of 12): 1 patients
patients with ≥3-point improvement ([3]; of 12): 10 patients
patients requiring invasive mechanical ventilation ([3]; one patient): 8.3%
cytokines of the cytokine storm (G-CSF, MDC, GM-CSF, IL-1α, IFN-γ, IL-7, FLT-3L, IL-1rα, IL-6, IL-12p70) [3, 7]: significant reduction
IL-6 after lenzilumab ([3]; patient 4, April 8): 95.4 pg/mL
LDH after lenzilumab ([3]; patient 4, April 8): 388 U/L
IL-6 after lenzilumab [3, 8]: 4.6
ferritin after lenzilumab [3, 8]: 1223
hemoglobin at last study observation, same patient ([3]; patient with subcapsular hematoma): 9.3 g/dL
patients requiring mechanical invasive ventilation ([3]; patients 1-5): None
time to clinical two-point improvement faster than comparators ([3]; vs Remdesivir, Lopinavir-Ritonavir (and Tocilizumab)): more than 50%
patients free of ARDS (SpO2/FiO2 of 315 or higher) by end of observation ([4]; 11 patients, P=0.43): 92%
mean SpO2/FiO2 over time post-treatment vs untreated ([4]; P<0.001): statistically significant difference
CRP reduction (mean) ([4]; after 4 days, control −0.95, P .01): 135.8
IL-6 concentration on day 4 ([4]; baseline 28.6 pg/mL, P=0.02): 8.52 pg/mL
mean CRP after treatment ([4]; baseline 172.2 mg/L, 4 days post-treatment, P=0.04): 36.4 mg/L
mean absolute neutrophil count day 4 ([4]; baseline 5.1, P=0.27): 4.8e+09 L⁻¹
mean hemoglobin day 4 ([4]; baseline 12.9, P=0.89): 11.4 g/dL
IL-6 reduction ([4]; baseline vs day 4): 20.1
ALC increase ([4]; control 0.03, P .04): 0.46 × 10*9/L
Mean temperature reduction ([4]; control 0.459, P .02): 1.075
PLT increase (mean platelet count from baseline) ([4]; control 63.2, P .61): 52.5
Ventilator-free survival vs untreated group ([4]; log-rank x^2=3.67, P=0.06): favored
Incidence of IMV [4]: (8%)
Incidence of IMV and/or death [4]: (8%)
Incidence of death [4]: (8%)
Incidence of IMV and/or death ([4]; P .07): 1 patients
Incidence of IMV ([4]; P .10): 1 patients
Incidence of death ([4]; P .43): 1 patients
Incidence of clinical improvement ([4]; P .43 vs control): 11 patients
Incidence of clinical improvement ([4]; at least 2 points on 8-point scale): (92%)
Incidence of clinical improvement ([4]; at least 2 points on 8-point scale, listed as lenzilumab): 92%
Incidence of IMV and/or death ([4]; listed as lenzilumab): 8%
cytokines and chemokines involved in the cytokine storm [4, 7]: significant reduction
Days to resolution of fever ([4]; range 1-6, P .22): 2 days
Days to clinical improvement (median) ([4]; range 1-14, control 11, P .006): 5 days
Days to discharge from hospital (median) ([4]; range 3-19, control 11, P .008): 5 days
Increase in mean absolute lymphocyte counts ([4]; untreated 0.03, P=0.04): 4.6e+08 L⁻¹
